Laboratory results as given in PMC2566858 (Nucleic Acids Research, 2008).
Where a chain is given by its changes, count along the chain named. Where two headings read alike, the source gives them in different places.

Legend:
Assay in all cases: fluorescence anisotropy
[1] = target: T1, rGyr_hel K106Q (Thermotoga maritima, UniProt O51934 59-541, K106Q)
T1 sequence: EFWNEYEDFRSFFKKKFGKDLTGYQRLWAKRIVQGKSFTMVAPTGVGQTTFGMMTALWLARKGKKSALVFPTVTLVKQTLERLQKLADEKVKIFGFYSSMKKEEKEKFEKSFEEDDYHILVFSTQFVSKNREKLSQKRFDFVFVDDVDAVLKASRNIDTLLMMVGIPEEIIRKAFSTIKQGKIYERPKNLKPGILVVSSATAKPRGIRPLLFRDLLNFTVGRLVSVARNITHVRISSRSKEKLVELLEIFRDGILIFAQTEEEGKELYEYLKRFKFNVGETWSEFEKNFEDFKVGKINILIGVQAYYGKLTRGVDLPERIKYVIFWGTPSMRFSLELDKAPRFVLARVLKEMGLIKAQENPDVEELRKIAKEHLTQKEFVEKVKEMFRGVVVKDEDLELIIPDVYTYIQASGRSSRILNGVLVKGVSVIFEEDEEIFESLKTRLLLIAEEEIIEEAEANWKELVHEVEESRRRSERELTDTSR

[2] = target: T1, rGyr_hel K106Q; remark: listed apart in the source
[3] = target: T2, rGyr_hel (reverse gyrase helicase-like domain) (Thermotoga maritima, UniProt O51934 59-541)
T2 sequence: T1 sequence with Q48K

[4] = target: T2, rGyr_hel (reverse gyrase helicase-like …); remark: listed apart in the source
[5] = target: T3, rGyr_fl Y851F (full-length reverse gyrase) (Thermotoga maritima, UniProt O51934 1-1104, Y851F)
T3 sequence: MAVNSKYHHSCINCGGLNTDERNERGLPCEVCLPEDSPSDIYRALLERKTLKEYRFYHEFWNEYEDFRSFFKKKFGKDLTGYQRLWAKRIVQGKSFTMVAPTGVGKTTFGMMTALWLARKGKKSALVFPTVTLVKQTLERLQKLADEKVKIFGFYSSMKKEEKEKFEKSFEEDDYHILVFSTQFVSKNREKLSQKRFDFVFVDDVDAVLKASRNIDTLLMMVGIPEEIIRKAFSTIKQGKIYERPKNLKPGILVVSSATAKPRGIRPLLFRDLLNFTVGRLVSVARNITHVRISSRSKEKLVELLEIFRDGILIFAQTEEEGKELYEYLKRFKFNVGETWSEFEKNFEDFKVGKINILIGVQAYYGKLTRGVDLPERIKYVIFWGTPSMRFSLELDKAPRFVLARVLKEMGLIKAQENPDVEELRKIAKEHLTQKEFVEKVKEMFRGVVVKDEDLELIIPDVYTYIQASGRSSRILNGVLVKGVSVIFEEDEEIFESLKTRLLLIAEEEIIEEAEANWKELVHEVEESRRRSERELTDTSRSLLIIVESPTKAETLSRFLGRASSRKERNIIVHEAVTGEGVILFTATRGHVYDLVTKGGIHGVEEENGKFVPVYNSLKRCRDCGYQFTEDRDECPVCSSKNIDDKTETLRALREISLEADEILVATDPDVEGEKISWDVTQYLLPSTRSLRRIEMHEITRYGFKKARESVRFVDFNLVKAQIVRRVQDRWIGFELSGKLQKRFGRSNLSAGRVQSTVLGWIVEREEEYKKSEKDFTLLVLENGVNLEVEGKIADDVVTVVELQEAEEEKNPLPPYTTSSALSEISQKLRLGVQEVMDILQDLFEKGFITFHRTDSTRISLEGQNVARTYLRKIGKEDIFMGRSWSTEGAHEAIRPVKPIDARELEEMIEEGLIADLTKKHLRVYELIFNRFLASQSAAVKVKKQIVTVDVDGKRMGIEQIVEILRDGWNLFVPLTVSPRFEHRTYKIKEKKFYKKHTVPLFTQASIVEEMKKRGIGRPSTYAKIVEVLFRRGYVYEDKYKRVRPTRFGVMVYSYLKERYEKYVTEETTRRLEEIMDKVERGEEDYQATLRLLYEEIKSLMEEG

[6] = target: T3, rGyr_fl Y851F (full-length reverse …); remark: listed apart in the source

B1: 60-base ssDNA (ssDNA)
DNA: AAGCCAAGCTTCTAGAGTCAGCCCGTGATATTCATTACTTCTTATCCTAGGATCCCCGTT
B1 showed a Kd [1] of 250 ± 30 nM, a Kd [2] of 200 ± 20 nM and a Kd [3] of 460 ± 30 nM. It also gave a Kd [4] of 200 ± 10 nM, a Kd [5] of 46 ± 8 nM and a Kd [6] of 330 ± 20 nM.

B2: 60 bp dsDNA (dsDNA)
DNA 1: B1 DNA
DNA 2: AACGGGGATCCTAGGATAAGAAGTAATGAATATCACGGGCTGACTCTAGAAGCTTGGCTT
B2 gave a Kd [1] of 2900 ± 600 nM.
